In the supplement of paper PMC9170038:

System: MS2 coat protein
Test: apparent KD of MS2 coat protein; designed switch direction (-1 OFF switch, 1 ON switch): 1; higher = weaker reporter binding
Procedure, shortened: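 Designed RNA switches with common flanks were transcribed on Illumina chips by stalled E. coli RNA polymerase and titrated with SNAP-549-labelled MS2 coat protein, from 0.7 or 1.5 nM doubling to 3 µM, in Tris-HCl pH 7.5 buffer with KCl, MgCl2, BSA, DTT, tRNA and Tween-20. Steps lasted 0.8–1.5 h (lowest) to 10–20 min (highest). Titrations ran without input, with 200 uM small-molecule ligand, or with an oligonucleotide input. Normalised cluster fluorescence was curve-fitted, and apparent KD is the per-design median over clusters.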

[1] = input ligand: microRNA oligo, concentration not stated
[2] = Eterna round: R95, input ligand: FMN 200 uM
[3] = Eterna round: R95, input ligand: microRNA oligo, concentration not stated
[4] = Eterna round: R95, input ligand: none

Row | Sequence | apparent KD of MS2 coat protein (input ligand: FMN 200 uM) | apparent KD of MS2 coat protein [1] | apparent KD of MS2 coat protein (input ligand: none) | apparent KD of MS2 coat protein [2] | apparent KD of MS2 coat protein [3] | apparent KD of MS2 coat protein [4]
1 | AUUAGUGGUGGAGGAUAUGGGAAAGGAAGUGUACUAGAAGGCCACCGCCCUCUAGCACAUGAGGAUCACCCAUGUAUAGAGCCC [PowerStrip SSNG 1.14] (Eterna round: R96, puzzle: Same State NG 1) | 243 nM | 25.8 nM | 88.2 nM |  |  | 
2 | AUUAUAAAUGCAGGAUAUGAUUAACAUGAGGAUCACCCAUGUGGUGUUGUGAGUAAGGAGAGUGAUCAGAAGGGCAUUUUUUUU [JMF's solution 24] (Eterna round: R96, puzzle: Same State NG 2) | 620 nM | 343 nM | 555 nM |  |  | 
3 | AUUAUUAAUGCAGGAUAUGAUUAACAUGAGGAUCACCCAUGUGGUGUUGUGAGUAAGGAGAGAGAUCAGAAGGGCAUUUUUUUU [JMF's solution 5] (Eterna round: R96, puzzle: Same State NG 2) | 317 nM | 263 nM | 361 nM |  |  | 
4 | AUUAUUUAUGCAGGAUAUGAUUAACAUGAGGAUCACCCAUGUGGUGUUGUGAGUAAGGAGAGUGAUCAGAAGGGCAUUUUUUGU [JMF's solution 54] (Eterna round: R96, puzzle: Same State NG 2) | 713 nM | 531 nM | 464 nM |  |  | 
5 | AUUGCUAGCGCAGGAUAUGAUGCGAAAAUUGCGUCAGAAGGGUGUACUCUCUCAUUGCGGGAGGACAUGAGGAUCACCCAUGUC [SameState NG1 #83] (Eterna round: R96, puzzle: Same State NG 1) | 66.6 nM | 71.5 nM | 83.3 nM |  |  | 
6 | AUUGCUUACGCAGGAUAUGAUGCGAAAAUUGCGUCAGAAGGGUGAAGUGACUCGUUGCAACAGGACAUGAGGAUCACCCAUGUC [SameState NG1 #91] (Eterna round: R96, puzzle: Same State NG 1) | 89 nM | 127 nM | 141 nM |  |  | 
7 | AUUUAACAAGCUUUUUGCUCGUCUUAUAAACAUGAGGAUCACCCAUGUAAUAGCGUGAGAGUAAAUAUUUAAAUAAU [JMF 93] (puzzle: Sensor for hsa-mir-208a) |  |  |  | 14.5 nM | 48.3 nM | 11.1 nM
8 | AUUUUUAAUGCAGGAUAUGAUUAACAUGAGGAUCACCCAUGUGGUGUUGUGAGUAAGGAGAGUGAUCAGAAGGGCAUCUUUUUU [JMF's solution 81] (Eterna round: R96, puzzle: Same State NG 2) | 567 nM | 529 nM | 490 nM |  |  | 
9 | AUUUUUAAUGCAGGAUAUGAUUAACAUGAGGAUCACCCAUGUGGUGUUGUGAGUAAGGAGAGUGAUCAGAAGGGCAUUUUUUCU [JMF's solution 88] (Eterna round: R96, puzzle: Same State NG 2) | 340 nM | 391 nM | 500 nM |  |  | 
10 | CAAGAAAACGCAGGAUAUACCCGAACAACCCGGGUAGAAGGGUGACACAUGAGGAUCACCCAUGUACAUGGCAUUAGCCAUGGA [Esusxebeis] (Eterna round: R96, puzzle: Same State NG 1) | 1020 nM | 262 nM | 430 nM |  |  | 
11 | CAAGGGUACGGAUUAGUACAUGAGGAUCACCCAUGUAUCCGACAGGAUAUCAUGUAAGAAGCCAGUGAGAAGGGUCUAGUCCAA [Eternabot solution 43] (Eterna round: R96, puzzle: Same State NG 3) | 367 nM | 205 nM | 460 nM |  |  | 
12 | CACGUCCAGGUAGGAUAUGAGGUGCCAUAGGGAACAGCCUAUGGACAUGAGGAUCACCCAUGUCCUCAGAAGGGCCAGACGUGA [Rasote] (Eterna round: R96, puzzle: Same State NG 2) | 25.7 nM | 116 nM | 171 nM |  |  | 
13 | CAGCGCUGCCGGGAGGAUAUGCGGUGAUGGACAUGAGGAUCACCCAUGUUAGCGGUAGCAUUACGGCAGAAGGCCCUGCAGCUGC [Soteed Omei mod 1] (puzzle: Same State 2) |  |  |  | 10.9 nM | 12.3 nM | 12.3 nM
14 | CAGCGCUGUCGAGAGGAUAUGCGGUGAUGGACAUGAGGAUCACCCAUGUUAGCGAUAGCAUUACUGUAGAAGGCUCUACAGCUGC [JL-ss2-3.08 ViennaUCT mod] (puzzle: Same State 2) |  |  |  |  | 24.3 nM | 
15 | CAUUCUUUUCCGGAGGAUAUGCUACCCUUUACAUGAGGAUCACCCAUGUUACCCUCUUCUUGUCAGUAGAAGGCCGUUUCUUAAC [Regan] (puzzle: Same State 2) |  |  |  |  | 27.3 nM | 
16 | CCAAUGUACAAUUUAGAUCUACAUGAGGAUCACCCAUGUACAGAGGAUAUCAGCUCGAAUAGAGCUGAGAAGGCUGAAUUAAUU [SSNG3/3-A1] (Eterna round: R96, puzzle: Same State NG 3) | 88.2 nM | 153 nM | 226 nM |  |  | 
